Results as given in patent US20250215100A1.

Molecular target: human CD40 on cells (human) (UniProt P25942)
Assay: FACS, inhibition of human CD40L-his binding to CHO-K1/hCD40 cells

Sequence of human CD40 on cells (human) (P25942 21-277): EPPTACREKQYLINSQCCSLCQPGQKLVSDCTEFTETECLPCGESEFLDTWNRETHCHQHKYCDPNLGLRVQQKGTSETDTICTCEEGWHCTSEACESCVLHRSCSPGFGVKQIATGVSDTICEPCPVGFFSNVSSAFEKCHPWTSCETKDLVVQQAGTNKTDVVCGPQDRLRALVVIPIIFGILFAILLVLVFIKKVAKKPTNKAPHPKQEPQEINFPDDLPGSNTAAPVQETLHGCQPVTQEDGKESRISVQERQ

Maximum inhibition rate (%): 2.3%
Substance: hIgG1 (antibody)
